Measurements reported in patent US20250000988A1, “EPHA2 BICYCLIC PEPTIDE LIGAND AND CONJUGATE THEREOF” (priority 2021, published 2025).
Like-named read-outs stand apart in the source and are kept apart here. Numbered stars: 1 amine (or outer) side, 2 acyl side, 3 side chain; on linkers, the order of the positions; unused ones are H or OH. Bridge positions count the residues as written; N and C are the ends. Square brackets hold non-standard residues; d marks the D form. Peptide text beside a SMILES is read from it. I, II: the chains in the order shown. * marks the point of attachment. X3 = O=C(CCCC(=O)NCCC(=O)[*:1])NCCOCCOCCN(CC(=O)[*:2])CC(=O)[*:3]; TATA = O=C(CC[*:1])N1CN(C(=O)CC[*:2])CN(C(=O)CC[*:3])C1; Dolaproine = CO[C@@H]([C@@H]1CCCN1)[C@@H](C)C(=O)O; Dil = CC[C@H](C)[C@H](NC)[C@@H](CC(=O)O)OC; X2 = O=C(CCCC(=O)[*:2])NCCC(=O)[*:1]; PABC = O=C(OCc1ccc(N[*:1])cc1)[*:2]; X1 = C[C@@H](N*)[C@@H](O)c1ccccc1; Hyp = O=C(O)[C@@H]1C[C@@H](O)CN1; hArg = N=C(N)NCCCC[C@H](N)C(=O)O; Cit = NC(=O)NCCC[C@H](N)C(=O)O; NMeV = CN[C@H](C(=O)O)C(C)C; hCys = N[C@@H](CCS)C(=O)O; Sar = CNCC(=O)O

Columns and labels:
PC3 cells = assay: PC3 cell proliferation inhibition assay; type: cell-based, human
Method: PC3 cell culture conditions: RPMI-1640+10% FBS+1% penicillin-streptomycin solution. The cells were cultured in a 37° C., 5% CO2 incubator. On the first day, the PC3 cells in the exponential growth phase were collected and plated in a 96-well cell culture plate at a density of 500 cells/well (90 μL/well). The cells were cultured overnight in a 37° C., 5% CO2 incubator. The next day, 10 μL of the compound at different concentrations was added to each well so that the final concentration of DMSO in each well was 0.1%. The mixture was cultured in a 37° C., 5% CO2 incubator for 3 days. After the completion of culture, 50 μL of detection solution (Cell Viability Assay, Promega, G7573) was added to each well. The mixture was mixed uniformly for 2 minutes and incubated at room temperature for 10 minutes. The chemiluminescence reading was detected by a microplate reader. The results were processed according to formula (1), the proliferation inhibition rate of the compound at different concentrations was calculated, and the IC50 value of the compound with an inhibition rate of 50% was calculated using origin9.2 software, wherein RLUcompound was the readout of the treated group, and RLUcontrol was the average value of the solvent control group.

[1] = tested on: PC3 cells subcutaneous transplanted tumor; assay: Mouse PC3 cells subcutaneous in vivo transplanted tumor model; parameters: species or system CB-17 SCID mice; settings: 0.5 mg/kg intravenously, once a week, 35 days
Method: Human prostate cancer PC3 cells were placed in an RPMI-1640 medium (supplemented with 10% fetal bovine serum and 1% penicillin-streptomycin solution) and cultured at 37° C. Conventional digestion treatment with trypsin was carried out twice a week for passage. When the cell saturation was 80%-90%, and the number reached the requirement, the cells were collected, counted, and inoculated. Male CB-17 SCID mice (from Beijing Vital River Laboratory Animal Technology Co., Ltd.) were subcutaneously inoculated with 0.1 mL (2×10^6) of PC3 cells (plus matrigel, with the volume ratio of 1:1) on the right back. When the average tumor volume reached about 80-120 mm^3, grouping and administration were performed (marked as Day 0). For the solvent group, 50 mM of acetic acid and 10% sucrose solution (pH=5) were administered; and for the administration group, 0.5 mg/kg of compound 2, compound 4 or compound 13 was intravenously administered. The administration frequency was once a week and the administration cycle was 35 days (Day 0-Day 34). After grouping, the tumor diameter was measured twice a week with a vernier caliper. The formula for calculating the tumor volume was: V=0.5×a×b^2, where a and b represented the long and short diameters of the tumor, respectively. The tumor inhibitory effect of the compound was evaluated by TGI (%)= [1−(average tumor volume at the end of administration in the treatment group-average tumor volume at the beginning of administration in the treatment group)/(average tumor volume at the end of treatment in the solvent control group-average tumor volume at the beginning of treatment in the solvent control group)]×100%. The tumor growth curve and the animal body weight change curve were as shown in FIG. 1 and FIG. 2, respectively.

MOLP8 cells = assay: MOLP8 cell proliferation inhibition assay; type: cell-based, human; settings: MOLP8 cells (EphA2 negative cell), incubated 5 days
Method: Human multiple myeloma MOLP8 cells purchased from DSMZ were placed in complete RPMI-1640 medium (supplemented with 20% fetal bovine serum) and cultured at 37° C. and 5% CO2. The cells in the exponential growth phase were collected, and the cell suspension was adjusted to 8000 cells/135 μL with the culture medium. 135 μl of the cell suspension was added to each well of a 96-well cell culture plate and incubated overnight. The next day, compounds at different concentrations were added, and the plate was placed in the incubator and incubated for 5 days. After the completion of culture, according to operation instructions for a CellTiter-Glo kit (Promega, Cat #G7573), 75 μL of CTG solution, which was already pre-melted and equilibrated to room temperature, was added to each well, and the mixture was uniformly mixed for 2 minutes using a microplate shaker. The plate was placed at room temperature for 10 minutes, and then […] signal values were measured using an Envision 2104 plate reader (PerkinElmer). The cell proliferation inhibition rate was calculated according to the formula [(1−(RLUcompound−RLUblank)/(RLUcontrol−RLUblank))×100%]. The IC50 value was obtained by four-parameter nonlinear fitting using GraphPad Prism software.

[2] = Pharmacokinetic test in rats; parameters: species or system SD rats; settings: in vivo, iv, rat plasma, i.v. 1 mg/kg, analyte PDC
Method: 3.1 Experimental animals: male SD rats, about 220 g, 6-8 weeks old, 3 rats/compound. Purchased from Chengdu Ddossy Experimental Animals Co., Ltd.
3.2 Experimental design: on the day of the test, 3 SD rats were randomly grouped according to their body weights. The animals were fasted with water available for 12 to 14 h one day before the administration, and were fed 4 h after the administration.
Before and after the administration, 0.15 m1 of blood was taken from the orbit of the animals under isoflurane anesthesia and placed in an EDTAK2 centrifuge tube. The blood was centrifuged at 5000 rpm and 4° C. for 10 min to collect plasma. The blood collection time points for the intravenous administration group and intragastric administration group were: 0, 5 min, 15 min, 30 min, 1 h, 2 h, 4 h, 6 h, 8 h and 24 h. Before analysis and detection, all samples were stored at −80° C., and a quantitative analysis of samples was performed using LC-MS/MS.

[3] = Pharmacokinetic test in monkeys; settings: cynomolgus monkey, in vivo, iv, monkey plasma; for AUC(0-t) / Cmax / half-life: 1 mg/kg
Method: 4.1 Experimental animals: male cynomolgus monkeys, 3-5 kg, 3-6 years old, 3 monkeys/compound. Purchased from Suzhou Xishan Biotechnology Inc.
4.2 Experimental method: on the day of the test, 3 monkeys were randomly grouped according to their body weights. The animals were fasted with water available for 14 to 18 h one day before the administration, and were fed 4 h after the administration.
Solvent for intravenous administration: 5% DMA+95% (20% SBE-CD).
Before and after the administration, 1.0 mL of blood samples were drawn from the limb veins and placed in an EDTAK2 centrifuge tube. Centrifugation was carried out at 5000 rpm at 4° C. for 10 min, and the plasma was collected. The blood collection time points for the intravenous administration group were: 0, 2 min, 5 min, 15 min, 30 min, 1 h, 2 h, 4 h, 6 h, 8 h, and 24 h. Before analysis and detection, all samples were stored at −80° C., and a quantitative analysis of samples was performed using LC-MS/MS.

[4] = i.v. 1 mg/kg of compound 4, analyte MMAE

CC[C@H](C)[C@@H]([C@@H](CC(=O)N1CCC[C@H]1[C@H](OC)[C@@H](C)C(=O)N[C@H](C)[C@@H](O)c1ccccc1)OC)N(C)C(=O)[C@@H](NC(=O)[C@H](C(C)C)N(C)C(=O)OCc1ccc(NC(=O)[C@H](CCCNC(N)=O)NC(=O)[C@@H](NC(=O)CCCC(=O)NCCC(=O)N(C)CC(=O)N(C)CC(=O)N(C)CC(=O)N(C)CC(=O)N(C)CC(=O)N(C)CC(=O)N(C)CC(=O)N(C)CC(=O)N(C)CC(=O)N(C)CC(=O)N[C@@H](C)C(=O)N[C@@H](CCCCNC(=N)N)C(=O)N[C@@H](CC(=O)O)C(=O)N[C@H]2CSCCC(=O)N3CN4CN(C3)C(=O)CCSC[C@H](NC(=O)[C@H](CC(C)C)NC(=O)[C@@H]3CCCN3C(=O)[C@H](CC(N)=O)NC(=O)[C@H](C(C)C)NC(=O)[C@H](CC(C)C)NC(=O)[C@@H]3C[C@@H](O)CN3C2=O)C(=O)N[C@@H](CC(C)C)C(=O)N[C@@H](Cc2c[nH]cn2)C(=O)N2CCC[C@H]2C(=O)N[C@H](CC(=O)O)C(=O)N[C@@H](Cc2c[nH]c3ccccc23)C(=O)N[C@@H](CCCCNC(=N)N)C(=O)N[C@H](C(N)=O)CCSCCC4=O)C(C)C)cc1)C(C)C [Compound 2] (I: [Sar][Sar][Sar][Sar][Sar][Sar][Sar][Sar][Sar][Sar]A[hArg]DC[Hyp]LVNPLCLHP[dD]W[hArg][hCys]-NH2 / II: V[Cit][PABC][NMeV]V[Dil][Dolaproine]-X1; linker I:14-I:21-I:28 via TATA; linker I:N-II:N via X2)
IC50 (PC3 cells; read-out: IC50 value): 3.1 nM | tolerability [1]: well tolerated

CC[C@H](C)[C@@H]([C@@H](CC(=O)N1CCC[C@H]1[C@H](OC)[C@@H](C)C(=O)N[C@H](C)[C@@H](O)c1ccccc1)OC)N(C)C(=O)[C@@H](NC(=O)[C@H](C(C)C)N(C)C(=O)OCc1ccc(NC(=O)[C@H](CCCNC(N)=O)NC(=O)[C@@H](NC(=O)CCCC(=O)NCCC(=O)N(C)CC(=O)N(C)CC(=O)N(C)CC(=O)N(C)CC(=O)N(C)CC(=O)N(C)CC(=O)N(C)CC(=O)N(C)CC(=O)N(C)CC(=O)N(C)CC(=O)N[C@@H](C)C(=O)N[C@@H](CCCCNC(=N)N)C(=O)N[C@@H](CC(=O)O)C(=O)N[C@H]2CCSCCC(=O)N3CN4CN(C3)C(=O)CCSC[C@H](NC(=O)[C@H](CC(C)C)NC(=O)[C@@H]3CCCN3C(=O)[C@H](CC(N)=O)NC(=O)[C@H](C(C)C)NC(=O)[C@H](CC(C)C)NC(=O)[C@@H]3C[C@@H](O)CN3C2=O)C(=O)N[C@@H](CC(C)C)C(=O)N[C@@H](Cc2c[nH]cn2)C(=O)N2CCC[C@H]2C(=O)N[C@H](CC(=O)O)C(=O)N[C@@H](Cc2c[nH]c3ccccc23)C(=O)N[C@@H](CCCCNC(=N)N)C(=O)N[C@H](C(N)=O)CSCCC4=O)C(C)C)cc1)C(C)C [Compound 4] (I: [Sar][Sar][Sar][Sar][Sar][Sar][Sar][Sar][Sar][Sar]A[hArg]D[hCys][Hyp]LVNPLCLHP[dD]W[hArg]C-NH2 / II: V[Cit][PABC][NMeV]V[Dil][Dolaproine]-X1; linker I:14-I:21-I:28 via TATA; linker I:N-II:N via X2)
IC50 (PC3 cells; read-out: IC50 value): 2.9 nM | IC50 (MOLP8 cells): 144 nM | AUC(0-t) [2]: 1470 ng·h/mL | Cmax [2]: 6530 ng/mL | clearance [2]: 11 mL/min/kg | half-life [2]: 16.3 min | Vd ([2]; read-out: Vdss): 0.233 L/kg | AUC(0-t) [3, 4]: 20.8 ng·h/mL | Cmax [3, 4]: 3.71 ng/mL | half-life [3, 4]: 1460 min | AUC(0-t) ([3]; i.v. 1 mg/kg, analyte PDC): 3030 ng·h/mL | Cmax ([3]; i.v. 1 mg/kg, analyte PDC): 7630 ng/mL | half-life ([3]; i.v. 1 mg/kg, analyte PDC): 38.6 min | clearance ([3]; i.v. 1 mg/kg, analyte PDC): 5.57 mL/min/kg | Vd ([3]; i.v. 1 mg/kg, analyte PDC, read-out: Vdss): 0.179 L/kg | tolerability [1]: well tolerated

CC[C@H](C)[C@@H]([C@@H](CC(=O)N1CCC[C@H]1[C@H](OC)[C@@H](C)C(=O)N[C@H](C)[C@@H](O)c1ccccc1)OC)N(C)C(=O)[C@@H](NC(=O)[C@H](C(C)C)N(C)C(=O)OCc1ccc(NC(=O)[C@H](CCCNC(N)=O)NC(=O)[C@@H](NC(=O)CCCC(=O)NCCC(=O)N(C)CC(=O)N(C)CC(=O)N(C)CC(=O)N(C)CC(=O)N(C)CC(=O)N(C)CC(=O)N(C)CC(=O)N(C)CC(=O)N(C)CC(=O)N(C)CC(=O)N[C@@H](C)C(=O)N[C@@H](CCCCNC(=N)N)C(=O)N[C@@H](CC(=O)O)C(=O)N[C@H]2CCSCCC(=O)N3CN4CN(C3)C(=O)CCSC[C@H](NC(=O)[C@H](CC(C)C)NC(=O)[C@@H]3CCCN3C(=O)[C@H](CC(N)=O)NC(=O)[C@H](C(C)C)NC(=O)[C@H](CC(C)C)NC(=O)[C@@H]3C[C@@H](O)CN3C2=O)C(=O)N[C@@H](CC(C)C)C(=O)N[C@@H](Cc2c[nH]cn2)C(=O)N2CCC[C@H]2C(=O)N[C@H](CC(=O)O)C(=O)N[C@@H](Cc2c[nH]c3ccccc23)C(=O)N[C@@H](CCCCNC(=N)N)C(=O)N[C@H](C(N)=O)CCSCCC4=O)C(C)C)cc1)C(C)C [Compound 13] (I: [Sar][Sar][Sar][Sar][Sar][Sar][Sar][Sar][Sar][Sar]A[hArg]D[hCys][Hyp]LVNPLCLHP[dD]W[hArg][hCys]-NH2 / II: V[Cit][PABC][NMeV]V[Dil][Dolaproine]-X1; linker I:14-I:21-I:28 via TATA; linker I:N-II:N via X2)
tolerability [1]: well tolerated

I: [Sar][Sar][Sar][Sar][Sar][Sar][Sar][Sar][Sar][Sar]A[hArg]D[hCys][Hyp]LVNPLCLHP[dD]W[hArg]C-NH2 / II: V[Cit][PABC][NMeV]V[Dil][Dolaproine]-X1 / III: V[Cit][PABC][NMeV]V[Dil][Dolaproine]-X1 (linker I:14-I:21-I:28 via TATA; linker I:N-II:N-III:N via X3) [Compound 17]
Max inh. % 10 μM (PC3 cells; 10 μM): 69.4% | IC50 (PC3 cells; cultured 3 days with compound, read-out: IC50): ≤ 10 nM | IC50 (PC3 cells; read-out: IC50 value): 1 nM
